Literature values as cited in PMC5801593.

Molecular target: IscS (Escherichia coli) (UniProt P0A6B7)
Experiment: fluorescence labeling and calorimetry

Sequence of IscS (Escherichia coli) (P0A6B7 whole entry): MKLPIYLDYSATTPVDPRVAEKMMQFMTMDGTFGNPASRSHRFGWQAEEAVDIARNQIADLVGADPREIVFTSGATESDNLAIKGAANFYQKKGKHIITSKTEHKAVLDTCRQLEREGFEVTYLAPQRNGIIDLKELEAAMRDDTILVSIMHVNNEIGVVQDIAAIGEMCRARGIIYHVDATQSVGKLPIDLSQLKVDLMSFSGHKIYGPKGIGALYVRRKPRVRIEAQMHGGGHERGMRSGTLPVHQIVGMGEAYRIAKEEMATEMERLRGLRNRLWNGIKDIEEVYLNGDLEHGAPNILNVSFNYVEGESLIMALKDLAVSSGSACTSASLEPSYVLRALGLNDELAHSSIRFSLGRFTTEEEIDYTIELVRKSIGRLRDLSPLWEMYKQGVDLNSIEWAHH
Sequence of CyaY (P27838 whole entry): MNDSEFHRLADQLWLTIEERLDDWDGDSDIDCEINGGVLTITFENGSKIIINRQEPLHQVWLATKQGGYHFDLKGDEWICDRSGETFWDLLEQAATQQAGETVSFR

Row | Substance | Kd
1 | IscX (from UniProt P0C0L9) | 12 µM
2 | CyaY (from UniProt P27838) | 20 µM
